Reference: patent JP2023550785A (dated 2023)

What was measured:
[1] = molecular target: T1, HCoV-HKU1 prefusion-stabilized spike (S) protein / S ectodomain trimer (human coronavirus HKU1, UniProt Q5MQD0 13-1300)
T1 sequence: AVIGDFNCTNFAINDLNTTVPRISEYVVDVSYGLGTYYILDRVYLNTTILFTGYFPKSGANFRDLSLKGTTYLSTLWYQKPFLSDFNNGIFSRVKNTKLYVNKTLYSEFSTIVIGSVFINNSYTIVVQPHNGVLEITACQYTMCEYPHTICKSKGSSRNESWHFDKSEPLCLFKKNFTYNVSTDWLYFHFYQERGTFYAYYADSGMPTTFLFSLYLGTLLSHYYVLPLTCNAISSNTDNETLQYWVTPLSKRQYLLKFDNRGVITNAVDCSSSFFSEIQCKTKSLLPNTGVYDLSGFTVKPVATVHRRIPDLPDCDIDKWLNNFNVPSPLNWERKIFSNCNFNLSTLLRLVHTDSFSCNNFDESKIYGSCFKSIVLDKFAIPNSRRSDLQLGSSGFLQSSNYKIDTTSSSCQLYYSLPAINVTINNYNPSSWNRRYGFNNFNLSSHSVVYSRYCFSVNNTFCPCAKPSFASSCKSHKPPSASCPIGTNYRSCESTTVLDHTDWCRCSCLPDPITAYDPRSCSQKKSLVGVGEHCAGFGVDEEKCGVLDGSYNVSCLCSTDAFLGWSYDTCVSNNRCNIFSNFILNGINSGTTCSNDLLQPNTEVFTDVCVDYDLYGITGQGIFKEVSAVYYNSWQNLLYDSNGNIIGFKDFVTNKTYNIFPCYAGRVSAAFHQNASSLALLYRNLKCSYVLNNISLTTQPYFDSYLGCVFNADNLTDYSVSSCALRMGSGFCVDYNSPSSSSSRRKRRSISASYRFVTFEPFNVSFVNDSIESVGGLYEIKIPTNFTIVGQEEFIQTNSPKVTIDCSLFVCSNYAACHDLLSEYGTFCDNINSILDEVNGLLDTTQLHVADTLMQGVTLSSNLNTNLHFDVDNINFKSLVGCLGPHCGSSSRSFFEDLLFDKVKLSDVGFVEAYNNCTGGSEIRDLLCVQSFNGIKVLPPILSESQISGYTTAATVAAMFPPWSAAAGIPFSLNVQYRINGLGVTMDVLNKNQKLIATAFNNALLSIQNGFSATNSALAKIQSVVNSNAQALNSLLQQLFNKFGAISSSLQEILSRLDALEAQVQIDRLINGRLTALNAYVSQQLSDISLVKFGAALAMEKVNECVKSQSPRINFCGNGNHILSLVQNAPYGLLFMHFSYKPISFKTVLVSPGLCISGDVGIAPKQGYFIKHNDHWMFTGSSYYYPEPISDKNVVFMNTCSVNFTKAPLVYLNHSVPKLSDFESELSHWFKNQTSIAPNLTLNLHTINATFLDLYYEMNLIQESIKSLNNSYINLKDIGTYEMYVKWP

[2] = molecular target: SARS-CoV (Urbani strain) prefusion-stabilized spike (S) protein / S ectodomain trimer (SARS-CoV (Urbani strain), UniProt P59594 14-1195)
[3] = molecular target: T2, MERS-CoV (London1/2012) prefusion-stabilized spike (S) protein / S ectodomain trimer (MERS-CoV (London1/2012), UniProt K9N5Q8 18-1296)
T2 sequence: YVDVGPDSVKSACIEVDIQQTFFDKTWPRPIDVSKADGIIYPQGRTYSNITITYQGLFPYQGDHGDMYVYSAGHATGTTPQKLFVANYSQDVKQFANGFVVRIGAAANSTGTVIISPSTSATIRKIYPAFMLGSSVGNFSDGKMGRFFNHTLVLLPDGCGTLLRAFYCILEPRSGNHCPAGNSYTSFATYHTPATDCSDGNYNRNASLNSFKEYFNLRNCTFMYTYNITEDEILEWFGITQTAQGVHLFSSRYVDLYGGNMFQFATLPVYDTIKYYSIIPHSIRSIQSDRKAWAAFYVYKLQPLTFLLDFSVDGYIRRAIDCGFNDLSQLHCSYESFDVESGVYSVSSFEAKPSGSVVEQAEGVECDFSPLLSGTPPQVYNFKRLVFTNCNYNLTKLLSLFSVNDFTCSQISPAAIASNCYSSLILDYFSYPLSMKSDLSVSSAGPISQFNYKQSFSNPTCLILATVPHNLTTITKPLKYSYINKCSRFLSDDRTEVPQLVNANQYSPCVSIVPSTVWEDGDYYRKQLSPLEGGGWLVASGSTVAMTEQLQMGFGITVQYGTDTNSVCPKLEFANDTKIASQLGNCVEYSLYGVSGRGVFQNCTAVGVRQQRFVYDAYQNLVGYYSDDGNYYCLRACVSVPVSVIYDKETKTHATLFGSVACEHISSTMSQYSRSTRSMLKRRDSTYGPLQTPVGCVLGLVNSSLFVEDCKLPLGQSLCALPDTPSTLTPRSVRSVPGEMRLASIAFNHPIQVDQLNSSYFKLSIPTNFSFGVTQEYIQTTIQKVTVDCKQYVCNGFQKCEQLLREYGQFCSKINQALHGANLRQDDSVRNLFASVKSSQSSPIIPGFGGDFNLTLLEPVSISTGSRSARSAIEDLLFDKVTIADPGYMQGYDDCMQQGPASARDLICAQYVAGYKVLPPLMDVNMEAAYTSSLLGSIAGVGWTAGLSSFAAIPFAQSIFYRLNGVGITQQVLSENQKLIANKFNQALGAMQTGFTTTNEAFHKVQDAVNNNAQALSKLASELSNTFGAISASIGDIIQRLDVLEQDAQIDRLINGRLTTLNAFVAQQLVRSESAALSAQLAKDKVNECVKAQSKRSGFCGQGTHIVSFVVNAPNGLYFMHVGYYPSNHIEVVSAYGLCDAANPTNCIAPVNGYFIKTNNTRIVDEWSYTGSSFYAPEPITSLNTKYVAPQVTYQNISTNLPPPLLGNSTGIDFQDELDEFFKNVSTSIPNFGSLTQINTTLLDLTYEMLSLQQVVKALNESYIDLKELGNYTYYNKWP

B1: antibody S2P6 (antibody 420 1 1), human monoclonal antibody expressed as recombinant human IgG1 (antibody, V domains shown)
VH: EVQLVQSGAEVKKPGASVKVSCKASGYTFTSQYMHWVRQAPGQGLEWIGIINPSGVHTSYAQKFQGRVTLTRDTSTSTLYMELSSLRSEDTAVYYCARGSPKGAFDYWGQGTLVTVSS
VL: not shown
B1 gave a Kd [1] of 2.44 nM, a Kd [2] of under 0.001 nM and a Kd [3] of 1.14 nM.
